Columns and labels:
[1] = target: T1, full length rat GHR (L43R) on BAF3 cells (rat) (UniProt P16310); test: cell-based or functional assay
T1 sequence (looked up): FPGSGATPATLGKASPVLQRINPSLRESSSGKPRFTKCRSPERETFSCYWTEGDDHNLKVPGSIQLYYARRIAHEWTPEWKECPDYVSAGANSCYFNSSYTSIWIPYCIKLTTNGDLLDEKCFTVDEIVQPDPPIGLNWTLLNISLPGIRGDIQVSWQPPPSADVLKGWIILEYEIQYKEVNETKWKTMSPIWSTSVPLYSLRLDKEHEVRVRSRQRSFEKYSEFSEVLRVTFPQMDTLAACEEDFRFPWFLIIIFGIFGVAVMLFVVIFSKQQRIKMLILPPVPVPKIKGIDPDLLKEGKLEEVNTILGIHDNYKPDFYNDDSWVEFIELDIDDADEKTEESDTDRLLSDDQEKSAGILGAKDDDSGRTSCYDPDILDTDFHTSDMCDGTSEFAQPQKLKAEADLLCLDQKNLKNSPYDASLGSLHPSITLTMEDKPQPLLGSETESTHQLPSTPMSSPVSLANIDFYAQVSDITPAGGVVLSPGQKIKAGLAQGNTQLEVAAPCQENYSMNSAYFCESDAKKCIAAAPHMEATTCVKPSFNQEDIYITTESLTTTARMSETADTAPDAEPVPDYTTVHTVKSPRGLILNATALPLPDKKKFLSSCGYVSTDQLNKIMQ

[2] = target: human growth hormone receptor on IM-9 cells (human) (UniProt P10912); test: cell-based or functional assay
Sequence of UniProt P10912 (P10912 19-638): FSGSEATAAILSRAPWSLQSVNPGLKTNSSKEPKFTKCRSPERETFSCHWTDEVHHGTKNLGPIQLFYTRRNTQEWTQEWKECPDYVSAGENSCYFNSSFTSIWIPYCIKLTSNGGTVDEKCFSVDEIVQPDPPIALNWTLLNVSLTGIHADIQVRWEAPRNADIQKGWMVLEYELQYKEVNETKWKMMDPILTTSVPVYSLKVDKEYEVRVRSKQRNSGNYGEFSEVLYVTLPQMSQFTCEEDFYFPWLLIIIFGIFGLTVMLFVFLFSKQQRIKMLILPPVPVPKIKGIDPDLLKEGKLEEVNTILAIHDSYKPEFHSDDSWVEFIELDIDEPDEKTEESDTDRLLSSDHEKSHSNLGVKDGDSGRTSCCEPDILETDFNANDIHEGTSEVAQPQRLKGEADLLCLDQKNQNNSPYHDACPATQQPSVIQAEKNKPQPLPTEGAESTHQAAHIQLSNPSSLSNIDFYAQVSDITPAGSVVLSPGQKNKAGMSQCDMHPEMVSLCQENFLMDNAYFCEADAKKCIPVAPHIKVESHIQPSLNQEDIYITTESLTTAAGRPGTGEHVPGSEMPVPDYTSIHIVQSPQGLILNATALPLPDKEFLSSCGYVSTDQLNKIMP

| Substance | Proliferation EC50 (nM), BrdU, rat GHR (L43R) BAF3 cells; WHO hGH expressed as unity [1] | pSTAT5 EC50 (nM), IM-9; WHO hGH expressed as unity [2] |
| --- | --- | --- |
| hGH G131pAF linked to 30 kDa PEG (from UniProt P01241 27-217) (ligand) | 4.6 nM | 23.8 nM |
| hGH K145pAF linked to 30 kDa PEG (from UniProt P01241 27-217) (ligand) | 5.3 nM | 20.6 nM |
| hGH R134pAF linked to 20 kDa PEG (from UniProt P01241 27-217) (ligand) | – | 5.3 nM |
| hGH Y35pAF linked to 40 kDa PEG (from UniProt P01241 27-217) (ligand) | 24 nM | 53.3 nM |
| hGH Y143pAF linked to 30 kDa PEG (from UniProt P01241 27-217) (ligand) | 6.6 nM | 12.3 nM |
